Reference: patent publication US20010010923A1, “MODIFIED CARBOXYPEPTIDASE” (priority 1997, published 2001)
Marks after values point to notes of the source that are not given here.

What was measured:
[1] = Transpeptidation of FA-Ala-OBzl with H-Leu-NH2, Table 3; type: biochemical; conditions: FA-Ala-OBzl 0.2 mM, pH 7.5
Outline: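 Site-directed mutant enzymes were reacted with H-Leu-NH2 in 50 mM HEPES, 5 mM EDTA, pH 7.5, with acyl-donor substrate at 0.2 mM final. Products were quantified by C-18 RP-HPLC at 254 nm at about 35% and 80% substrate consumption. fa is aminolysis product over all products; famax is fa at nucleophile saturation, and KN(app) is the nucleophile concentration giving famax/2.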

[2] = Transpeptidation of FA-Ala-Xaa-OH with H-Gly-NH2, Table 2; type: biochemical; conditions: 1.9 M H-Gly-NH2, pH 7.5, room temperature
Outline: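 Enzyme reacted with 0.2 mM peptide substrate and nucleophile in 50 mM HEPES, 5 mM EDTA, pH 7.5; aliquots quenched in 1% TFA. Products quantified by reverse-phase HPLC at 254 nm at two conversion points (20-50% and 50-90% substrate consumed). Fraction of aminolysis = aminolysis product over all products, ignoring unconsumed substrate.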

B1: M398R: carboxypeptidase Y S1' mutant, substitution M398R (protein, UniProt P00729 112-532, looked up, variant M398R)
Carboxypeptidase Y: KIKDPKILGIDPNVTQYTGYLDVEDEDKHFFFWTFESRNDPAKDPVILWLNGGPGCSSLTGLFFELGPSSIGPDLKPIGNPYSWNSNATVIFLDQPVNVGFSYSGSSGVSNTVAAGKDVYNFLELFFDQFPEYVNKGQDFHIAGESYAGHYIPVFASEILSHKDRNFNLTSVLIGNGLTDPLTQYNYYEPMACGEGGEPSVLPSEECSAMEDSLERCLGLIESCYDSQSVWSCVPATIYCNNAQLAPYQRTGRNVYDIRKDCEGGNLCYPTLQDIDDYLNQDYVKEAVGAEVDHYESCNFDINRNFLFAGDWMKPYHTAVTDLLNQDLPILVYAGDKDFICNWLGNKAWTDVLPWKYDEEFASQKVRNWTASITDEVAGEVKSYKHFTYLRVFNGGHRVPFDVPENALSMVNEWIHGGFSL
fa ([1]; H-Leu-NH2): 0.39^b | KN(app) ([1]; nucleophile H-Leu-NH2 concentration at which fa is half of maximum): 9.9^c mM | Fraction of aminolysis (fa), P1' Ala ([2]; FA-Ala-Ala-OH 0.2 mM): 0.48 | Fraction of aminolysis (fa), P1' Leu ([2]; FA-Ala-Leu-OH 0.2 mM): 0.16 | Fraction of aminolysis (fa), P1' Met ([2]; FA-Ala-Met-OH 0.2 mM): 0.33 | Fraction of aminolysis (fa), P1' Phe ([2]; FA-Ala-Phe-OH 0.2 mM): 0.11 | Fraction of aminolysis (fa), P1' Val ([2]; FA-Ala-Val-OH 0.2 mM): 0.26
